Assay results as given in paper PMC10796322, “Molecular switching in transcription through splicing and proline-isomerization regulates stress responses in plants” (Nature Communications, 2024).
Residue numbers refer to the chain shown, from its start. Names and notes keep the numbering of the source. Values joined by “and” are separate entries in the source; they are usually repeats but may differ in a detail not shown here. Equal values may be shown once. No end group written: not given here.

Key:
[1] = target: T1, Med25-ACID (Arabidopsis thaliana, UniProt Q7XYY2); conditions: SD
T1 construct: Med25-ACID532-680 (AT1G25540), expressed in E. coli with N-terminal GST tag removed by TEV protease
T1 sequence (Q7XYY2 532-680): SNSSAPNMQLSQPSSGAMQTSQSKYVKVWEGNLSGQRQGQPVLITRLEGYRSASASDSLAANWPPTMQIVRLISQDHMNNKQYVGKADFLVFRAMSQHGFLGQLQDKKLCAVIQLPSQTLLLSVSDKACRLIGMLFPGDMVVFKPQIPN
Procedure: All protein fragments were produced with an N-terminal Glutathione-S-transferase (GST) tag which was removed using Tobacco Etch Virus (TEV) protease and expressed from E.coli BL21 DE3 cells. DREB2A (AT5G05410) variants were expressed at 37 °C for three hours. The DREB2A splice variant (AT5G05410.2) was based on GenBank ID CD530293[21]. Due to stability and aggregation considerations, Med25-ACID (AT1G25540) was expressed with additional N-terminal residues. Expression of Med25-ACID532-680 was induced at high OD (0.8-1.0) and cultured overnight at 18 °C. Cells were resuspended in 20 mM Tris-HCl pH 8.0, 100 mM NaCl lysis buffer and sonicated. The lysate was incubated with glutathione Sepharose for one hour and washed using the lysis buffer. Aliquots of 5 mL resin were resuspended in 20 mL of lysis buffer with 5 mM dithiothreitol (DTT) and 1 mM EDTA and the protein was cleaved overnight at 4 °C using TEV protease. For DREB2A, cleaved protein was freeze-dried and buffer-changed to experimental buffer using size exclusion chromatography. Med25-ACID was further purified using cation exchange (Source 15 S) at pH 8.5 and the buffer was changed using size exclusion chromatography (Superdex S75 10/300 GL). Isotope-labeled proteins were produced by growing the initial culture in lysogenic broth and transferring to half volume M9 minimal media 30 min before induction.
ITC was performed on either a MicroCal ITC200 or a Malvern Pananalytical PEAQ-ITC. All ITC experiments were performed using a 50 mM HEPES pH 7.4, 100 mM NaCl and 0.5 mM tris(2-carboxyethyl)phosphine (TCEP) buffer. All experiments were performed using a ~ 1:10 cell to syringe protein concentration ratio. For high-affinity DREB2A fragments, the cell concentration was around 15 µM, while lower-affinity interaction experiments used higher concentrations. Samples were degassed by centrifuging at 20,000 x g for 20 minutes at experimental temperature. For three DREB2A fragments, experiments were performed over a range of temperatures to determine the ΔCp. Reported thermodynamic parameters are given at 25 °C. Data were analyzed using Origin and inhouse scripts using the one-set-of-sites model as documented by MicroCal and Origin. Dilution heats were fitted using an offset parameter. Most experiments were performed using a 0.5 µl initial injection, which was discarded in the analysis, followed by 18 injections of 2.0 µl.

[2] = target: Med25-ACID_(532-680), activator interaction domain (ACID) of mediator complex subunit 25 (Arabidopsis thaliana) (UniProt Q7XYY2); assay: NMR titration; 15N-HSQC; 100-150 µM 15N-labeled Med25-ACID(532-680) at constant concentration with increasing DREB2A ligand; 20 mM Na2HPO4/NaH2PO4 pH 6.5, 100 mM NaCl; chemical shift perturbations
[3] = target: RCD1 RST (Arabidopsis thaliana) (UniProt Q8RY59); conditions: cited from earlier work
[4] = target: T2, Med25-ACID R568A (Arabidopsis thaliana, UniProt Q7XYY2 532-680, R568A); assay: ITC
T2 sequence: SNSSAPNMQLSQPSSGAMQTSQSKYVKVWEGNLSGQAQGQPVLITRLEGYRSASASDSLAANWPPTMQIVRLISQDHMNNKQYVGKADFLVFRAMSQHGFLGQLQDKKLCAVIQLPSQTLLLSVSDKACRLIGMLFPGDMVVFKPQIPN

[5] = target: T3, Med25-ACID_(532-680), activator interaction domain (ACID) of mediator complex subunit 25 (Arabidopsis thaliana, UniProt Q7XYY2 532-680); assay: ITC; 25 °C; 50 mM HEPES pH 7.4, 100 mM NaCl, 0.5 mM TCEP; ~1:10 cell to syringe concentration ratio, cell around 15 µM for high-affinity fragments; one-set-of-sites model; which protein was in the cell is not stated; conditions: both partners purified
T3 construct: 15N- or 13C,15N-labelled in the NMR titrations; unlabelled in ITC, CEST and stopped-flow; also called AtMed25-ACID; ACID domain; source: E. coli BL21 DE3, purified (glutathione Sepharose, TEV cleavage, cation exchange, SEC); not shown: GST, N-terminal, cleaved
T3 sequence (looked up): T2 sequence with A37R

[6] = target: T3, Med25-ACID_(532-680), activator …; assay: stopped-flow fluorescence; FITC-DREB2A (50 nM 234-276 or 250 nM 234-256) mixed with increasing Med25-ACID(532-680), pseudo-first-order; dissociation by competitive displacement with unlabeled DREB2A; 50 mM HEPES pH 7.4, 100 mM NaCl, 1 mM DTT; Fig. 7 legend gives kinetic rate constants at 10 °C; conditions: both partners purified
[7] = target: T4, Med25-ACID_(532-680), activator interaction domain (ACID) of mediator complex subunit 25 (Arabidopsis thaliana, UniProt Q7XYY2 532-680); assay: NMR; first site (Kd,1), competitive two binding sites model
T4 chain: T2 sequence with A37R

[8] = target: T4, Med25-ACID_(532-680), activator …; assay: NMR; second site (Kd,2), competitive two binding sites model

## DREB2A195-276 F259A
[1]
  Kd: 0.55 ± 0.05 µM

## DREB2A195-276 D241A
[1]
  Kd: 2 ± 0.7 µM

## DREB2A_(255-276) (RIM) (from UniProt O82132 255-276) (domain or fragment)
[2]
  KD (binding surface site): 3000 to 6000 µM
  KD (binding surface site, by NMR): 5000 µM
  KD (groove site): 200 to 400 µM

## DREB2A234-335 [234–335]
[1]
  Kd: 0.44 ± 0.06 µM

## DREB2A195-276 W244A
[1]
  Kd: 1.9 ± 0.2 µM

## DREB2A195-276 V239A
[1]
  Kd: 2 ± 0.2 µM

## DREB2A195-335,Δ244-276 (splice variant fragment) [195–335 ∆244–276]
[1]
  Kd: 5.4 ± 0.6 µM

## DREB2A195-276 F274A
[1]
  Kd: 0.66 ± 0.09 µM

## DREB2A (from UniProt O82132)
[3]
  Kd: 0.012 µM

## DREB2A151-335 [151–335]
[1]
  Kd: 0.54 ± 0.04 µM

## DREB2A195-276 L237A
[1]
  Kd: 2.4 ± 0.3 µM

## DREB2A195-276 E263P
[1]
  Kd: 0.58 ± 0.04 µM

B1: DREB2A_(195-276) (domain or fragment, Arabidopsis thaliana, UniProt O82132 195-276, looked up)
chain: VKADKHWLSEFEHNYWSDILKEKEKQKEQGIVETCQQQQQDSLSVADYGWPNDVDQSHLDSSDMFDVDELLRDLNGDDVFAG
notes: source: E. coli BL21 DE3, purified (glutathione Sepharose, TEV cleavage, SEC); not shown: GST, N-terminal, cleaved
[4]
  Kd: 3.2 µM and 2.9 µM
[5]
  Kd: 0.45 µM
  dH: -51.2 kJ/mol
  stoichiometry N: 1.09

B2: DREB2A_(195-276) F274A (domain or fragment, Arabidopsis thaliana, UniProt O82132 195-276, looked up)
chain: B1 chain with F80A
notes: as for B1
[5]
  Kd: 0.66 ± 0.09 µM
  dH: -62 ± 2 kJ/mol
  stoichiometry N: 0.86 ± 0.02

B3: DREB2A_(195-276) F259A (domain or fragment, Arabidopsis thaliana, UniProt O82132 195-276, looked up)
chain: B1 chain with F65A
notes: as for B1
[5]
  Kd: 0.55 ± 0.05 µM
  dH: -58.8 ± 0.9 kJ/mol
  stoichiometry N: 1.2 ± 0.1

B4: DREB2A_(195-276) W244A (domain or fragment, Arabidopsis thaliana, UniProt O82132 195-276, looked up)
chain: B1 chain with W50A
notes: as for B1
[5]
  Kd: 1.9 ± 0.2 µM
  dH: -47 ± 1 kJ/mol
  stoichiometry N: 1 ± 0.1

B5: DREB2A_(195-276) D241A (domain or fragment, Arabidopsis thaliana, UniProt O82132 195-276, looked up)
chain: B1 chain with D47A
notes: as for B1
[5]
  Kd: 2 ± 0.7 µM
  dH: -37 ± 7 kJ/mol
  stoichiometry N: 1.07 ± 0.06

B6: DREB2A_(195-276) L237A (domain or fragment, Arabidopsis thaliana, UniProt O82132 195-276, looked up)
chain: B1 chain with L43A
notes: as for B1
[5]
  Kd: 2.4 ± 0.3 µM
  dH: -22.9 ± 0.7 kJ/mol
  stoichiometry N: 1.03 ± 0.06

B7: DREB2A_(195-276) E263P (domain or fragment, Arabidopsis thaliana, UniProt O82132 195-276, looked up)
chain: B1 chain with E69P
notes: also called helix-disrupting DREB2A E263P variant; source: E. coli BL21 DE3, purified (glutathione Sepharose, TEV cleavage, SEC); not shown: GST, N-terminal, cleaved
[5]
  Kd: 0.58 ± 0.04 µM
  dH: -61.2 ± 0.8 kJ/mol
  stoichiometry N: 1 ± 0.06

B8: DREB2A_(195-276) V239A (domain or fragment, Arabidopsis thaliana, UniProt O82132 195-276, looked up)
chain: B1 chain with V45A
notes: as for B1
[5]
  Kd: 2 ± 0.2 µM
  dH: -42 ± 1 kJ/mol
  stoichiometry N: 0.95 ± 0.01

B9: DREB2A_(234-256) (ABS) (domain or fragment, Arabidopsis thaliana, UniProt O82132 234-256, looked up)
chain: QDSLSVADYGWPNDVDQSHLDSS
notes: also called monovalent ABS fragment; source: E. coli BL21 DE3, purified (glutathione Sepharose, TEV cleavage, SEC); not shown: GST, N-terminal, cleaved
[5]
  Kd: 6 µM
  dH: -54 kJ/mol
  stoichiometry N: 0.86

B10: DREB2A_(195-335,Δ244-276) (domain or fragment, Arabidopsis thaliana, UniProt O82132 195-335, looked up)
chain: VKADKHWLSEFEHNYWSDILKEKEKQKEQGIVETCQQQQQDSLSVADYGLNQDRYPGNSVANGSYRPESQQSGFDPLQSLNYGIPPFQLEGKDGNGFFDDLSYLDLEN
notes: also called splice variant fragment; source: E. coli BL21 DE3, purified (glutathione Sepharose, TEV cleavage, SEC); not shown: GST, N-terminal, cleaved
[5]
  Kd: 5.4 µM
  dH: -59 kJ/mol
  stoichiometry N: 1.02

B11: DREB2A_(234-335) (domain or fragment, Arabidopsis thaliana, UniProt O82132 234-335, looked up)
chain: QDSLSVADYGWPNDVDQSHLDSSDMFDVDELLRDLNGDDVFAGLNQDRYPGNSVANGSYRPESQQSGFDPLQSLNYGIPPFQLEGKDGNGFFDDLSYLDLEN
notes: DREB2A, Arabidopsis thaliana, AT5G05410, residues 234-335; source: E. coli BL21 DE3, purified (glutathione Sepharose, TEV cleavage, SEC); not shown: GST, N-terminal, cleaved
[5]
  Kd: 0.44 µM
  dH: -58 kJ/mol
  stoichiometry N: 1

B12: DREB2A_(234-276,P245A) (domain or fragment, Arabidopsis thaliana, UniProt O82132 234-276, looked up)
chain: QDSLSVADYGWANDVDQSHLDSSDMFDVDELLRDLNGDDVFAG
notes: Isotope-labelled in the CEST experiments; also called ABS-RIM_(P245A); DREB2A_(P245A); source: E. coli BL21 DE3, purified (glutathione Sepharose, TEV cleavage, SEC); not shown: GST, N-terminal, cleaved
[5]
  Kd: 0.78 ± 0.06 µM
  dH: -43.4 ± 0.8 kJ/mol
  stoichiometry N: 1.26 ± 0.01

B13: FITC-DREB2A_(234-276) (domain or fragment, Arabidopsis thaliana, UniProt O82132 234-276, looked up)
chain: B12 chain with A12P
modifications: also: single FITC label, position not given here
notes: also called FITC-labeled ABS-RIM; single-labeled FITC-DREB2A; source: E. coli BL21 DE3, purified; labeled with a FITC labeling kit (Pierce) and purified by reversed phase chromatography; not shown: GST, N-terminal, cleaved
[6]
  binding result: binds

B14: DREB2A_(151-335) (domain or fragment, Arabidopsis thaliana, UniProt O82132 151-335, looked up)
chain: VCTVETPGCVHVKTEDPDCESKPFSGGVEPMYCLENGAEEMKRGVKADKHWLSEFEHNYWSDILKEKEKQKEQGIVETCQQQQQDSLSVADYGWPNDVDQSHLDSSDMFDVDELLRDLNGDDVFAGLNQDRYPGNSVANGSYRPESQQSGFDPLQSLNYGIPPFQLEGKDGNGFFDDLSYLDLEN
notes: also called C-terminal intrinsically disordered region (IDR) of DREB2A; source: E. coli BL21 DE3, purified (glutathione Sepharose, TEV cleavage, SEC); not shown: GST, N-terminal, cleaved
[5]
  dH: -52.3 kJ/mol
  stoichiometry N: 1.1

## SSDMFDVDELLRDLNGDDVFAG (domain or fragment) [DREB2A_(255-276) (RIM)]
[7]
  Kd: 280 µM
[8]
  Kd: 4700 µM

B15: DREB2A_(234-272) (domain or fragment, Arabidopsis thaliana, UniProt O82132 234-272, looked up)
chain: QDSLSVADYGWPNDVDQSHLDSSDMFDVDELLRDLNGDD
notes: DREB2A, Arabidopsis thaliana, AT5G05410, residues 234-272; source: E. coli BL21 DE3, purified (glutathione Sepharose, TEV cleavage, SEC); not shown: GST, N-terminal, cleaved
[5]
  Kd: 1.8 µM
  dH: -43 kJ/mol
  stoichiometry N: 0.97
